Common to all, as to experiment: positional peptide library pulldown on immobilised Nb, LC-MS of supernatant; signal ratio to control GFP-Nb (1 = not captured, near 0 = captured)
In one experiment the target is T1, BC2T Q11A.
T1 construct: positional scanning library member
T1 peptide: Ac-PDRKAAVSHWAQ-NH2
The source says:
(§1) In total, 12 different BC2T libraries displaying all 20 proteinogenic amino acids in one single position of the peptide were used in immunoprecipitation experiments. […] The direct comparison with the GFP-Nb made it possible to determine the quantitative degree of peptide capture without the need of labeled standards. […] The more peptide was captured the more the value approximates 0. It was not possible to discriminate between isoleucine (I) and leucine (L) peptide versions since these peptides are isobaric.
(§2) To investigate the binding specificity of the BC2T and derived mutants peptide libraries for each amino acid position of the sequence […] (SEQ ID NO:4) were synthesized with acetyl and amide groups located at the N-termini or C-termini respectively (Intavis). […] Incubations were performed in 300 μl PBS/0.01% CHAPS for 1 h on a HulaMixer (Life Technologies). Subsequent to a centrifugation step 10 μl supernatant were analyzed in a LC-MS procedure. Peptides were separated using an UltiMate3000 RSLCnano System (Thermo Scientific), composed of a C18 PepMap100μ-Precolumn (300 μm×5 mm; particle size: 5 μm; pore size: 100 Å—Thermo Scientific) and a C18 analytical column (Acclaim Rapid Separation LC (RSLC) Column: 150 mm×5 mm; particle size: 2.2 μm; pore size: 100 Å—Thermo Scientific). A step gradient was applied starting at 8% and ending after 20 min at 30% eluent B (80% acetonitrile, 20% H₂O, 0.1% formic acid).

The next experiment has as its target T2, BC2T S8G.
T2 construct: positional scanning library member
T2 peptide: Ac-PDRKAAVGHWQQ-NH2
Excerpt: as §1, §2

The target in another experiment is T3, BC2T H9V.
T3 construct: positional scanning library member
T3 peptide: Ac-PDRKAAVSVWQQ-NH2
Excerpt: as §1, §2

In another experiment the target is T4, BC2T S8(I/L1) (N-terminal acetyl; C-terminal amide).
T4 construct: positional scanning library member; I or L not resolved
Excerpt: as §1, §2

A further experiment concerns the target T5, BC2T H9M.
T5 construct: positional scanning library member
T5 peptide: Ac-PDRKAAVSMWQQ-NH2
Excerpt: as §1, §2

The target of the next experiment is T6, BC2T H9F.
T6 construct: positional scanning library member
T6 peptide: Ac-PDRKAAVSFWQQ-NH2
Excerpt: as §1, §2

The target of another experiment is T7, BC2T H9S.
T7 construct: positional scanning library member
T7 peptide: Ac-PDRKAAVSSWQQ-NH2
Excerpt: as §1, §2

A further experiment has as its target T8, BC2T W10S.
T8 construct: positional scanning library member
T8 peptide: Ac-PDRKAAVSHSQQ-NH2
Excerpt: as §1, §2

The next experiment addresses T9, BC2T H9T.
T9 construct: positional scanning library member
T9 peptide: Ac-PDRKAAVSTWQQ-NH2
Excerpt: as §1, §2

The target of the next experiment is T10, BC2T W10T.
T10 construct: positional scanning library member
T10 peptide: Ac-PDRKAAVSHTQQ-NH2
Excerpt: as §1, §2

The target of a further experiment is T11, BC2T S8N.
T11 construct: positional scanning library member
T11 peptide: Ac-PDRKAAVNHWQQ-NH2
Excerpt: as §1, §2

The target of a further experiment is T12, BC2T W10N.
T12 construct: positional scanning library member
T12 peptide: Ac-PDRKAAVSHNQQ-NH2
Excerpt: as §1, §2

A further experiment concerns the target T13, BC2T S8Q.
T13 construct: positional scanning library member
T13 peptide: Ac-PDRKAAVQHWQQ-NH2
Excerpt: as §1, §2

Another experiment addresses T14, BC2T H9Q.
T14 construct: positional scanning library member
T14 peptide: Ac-PDRKAAVSQWQQ-NH2
Excerpt: as §1, §2

The target in another experiment is T15, BC2T W10C(Abu) (SMILES …).
T15 construct: positional scanning library member
T15 peptide: Ac-PDRKAAVSH[GABA]QQ-NH2
Excerpt: as §1, §2

In the next experiment the target is T16, BC2T Q12C(Abu) (SMILES …).
T16 construct: positional scanning library member
T16 peptide: Ac-PDRKAAVSHWQ[GABA]-NH2
Excerpt: as §1, §2

A further experiment concerns the target T17, BC2T Q12K.
T17 construct: positional scanning library member
T17 peptide: Ac-PDRKAAVSHWQK-NH2
Excerpt: as §1, §2

The target of another experiment is T18, BC2T S8R.
T18 construct: positional scanning library member
T18 peptide: Ac-PDRKAAVRHWQQ-NH2
Excerpt: as §1, §2

The target in another experiment is T19, BC2T Q12R.
T19 construct: positional scanning library member
T19 peptide: Ac-PDRKAAVSHWQR-NH2
Excerpt: as §1, §2

The next experiment concerns the target T20, BC2T S8H.
T20 construct: positional scanning library member
T20 peptide: Ac-PDRKAAVHHWQQ-NH2
Excerpt: as §1, §2

The target in another experiment is T21, BC2T Q11H.
T21 construct: positional scanning library member
T21 peptide: Ac-PDRKAAVSHWHQ-NH2
Excerpt: as §1, §2

This is an account of results in US20170137467A1 (CHROMOTEK, published 2017).

Substitutions are numbered along the chain they refer to. Square brackets hold non-standard residues; d marks the D form. GABA = NCCCC(=O)O

B1: BC2 nanobody (VHH)
VHH: QVQLVESGGGLVQPGGSLTLSCTASGFTLDHYDIGWFRQAPGKEREGVSCINNSDDDTYYADSVKGRFTIFMDNAKDTVYLQMNSLKPEDTAIYYCAEARGCKRGRYEYDFWGQGTQVTVSS
notes: immobilised on beads in this assay; also called BC2-Nb; BC2 nanotrap (immobilised)
As for B1, the ratio amounted to 0.1 with BC2T Q11A; 0.5 with BC2T S8G; 0.2 with BC2T H9V; 0.4 with BC2T S8(I/L1); 0.1 in the experiment with BC2T H9M; 0.1 in the experiment with BC2T H9F. For the same molecule, the ratio with BC2T H9S was found to be 0.2; with BC2T W10S it was 1.1; with BC2T H9T it was 0.2; in the experiment with BC2T W10T, 1; in the experiment with BC2T S8N it was 0.2; in the experiment with BC2T W10N, 1. Besides, the ratio with BC2T S8Q is 0.7; with BC2T H9Q it was 0.2; with BC2T W10C(Abu), 1; in the experiment with BC2T Q12C(Abu), 0.1; with BC2T Q12K, 0; with BC2T S8R it was 0.5. The ratio in the experiment with BC2T Q12R came out at 0.1; in the experiment with BC2T S8H, 0.7; in the experiment with BC2T Q11H it was 0.1.

B2: BC2-NbR106S (VHH)
VHH: B1 VHH with R106S
notes: headlock mutant of BC2-Nb; immobilised on beads in this assay
As for B2, the ratio with BC2T Q11A stood at 0.4; in the experiment with BC2T S8G it was 0.9; with BC2T H9V it was 0.6; with BC2T S8(I/L1), 0.6; with BC2T H9M it was 0.3; with BC2T H9F, 0.3. Besides, the ratio with BC2T H9S was found to be 0.5; with BC2T W10S it was 1.1; with BC2T H9T, 0.5; with BC2T W10T, 1; with BC2T S8N, 0.7; with BC2T W10N, 1.1. The ratio in the experiment with BC2T S8Q stood at 0.9; in the experiment with BC2T H9Q, 0.4; with BC2T W10C(Abu) it was 1; with BC2T Q12C(Abu), 0.2; with BC2T Q12K, 0.1; in the experiment with BC2T S8R, 0.9. Besides, the results for the ratio with BC2T Q12R, with BC2T S8H and with BC2T Q11H were 0.1, 0.9 and 0.2, respectively.
